According to US20180016306A1:

Experiments:
[1] = molecular target: aRSV-Fab (Fab fragment of anti-RSV monoclonal IgG Palivizumab, Synagis); test: SPR (Biacore 3000), aRSV-Fab on CM5 chip, peptide flowed, 25 C, pH 7.4, 1:1 fit
[2] = molecular target: aRSV-Fab (Fab fragment of anti-RSV monoclonal IgG Palivizumab, Synagis); test: affinity chromatography, peptide on aRSV-Fab-immobilised column, linear pH gradient 5.5 to 2.5, pH at elution peak top
[3] = molecular target: aRSV-Fab (Fab fragment of anti-RSV monoclonal IgG Palivizumab, Synagis); test: affinity chromatography, peptide on aRSV-Fab-immobilised column, linear pH gradient, pH at elution peak top
[4] = molecular target: aRSV-Fab (Fab fragment of anti-RSV monoclonal IgG Palivizumab, Synagis); test: affinity chromatography, aRSV-Fab on LB5t-T16H.4d-immobilised cellulose carrier, linear pH gradient 5.0 to 2.4, pH at elution peak top

| Ka [1] | koff [1] | kon [1] | Dissociation pH [2] | Dissociation pH [3] | Elution pH [4] | Binder |
| --- | --- | --- | --- | --- | --- | --- |
|  |  |  |  | 3.65 pH |  | LB5t-T16L.1d (designed binder) GPLGSEQVTIKENIYFEDGTVQLATFKGTFAEATAEAYRYADLLSKEHGKYTADLEDGGYTINIRFAG |
| 1.26e+07 M⁻¹ | 0.0296 s⁻¹ | 373000 M⁻¹ s⁻¹ | 3.65 pH |  |  | LB5t-T18Q.1d (designed binder) GPLGSEQVTIKENIYFEDGTVQTAQFKGTFAEATAEAYRYADLLSKEHGKYTADLEDGGYTINIRFAG |
| 1.87e+07 M⁻¹ | 0.0225 s⁻¹ | 421000 M⁻¹ s⁻¹ | 3.6 pH |  |  | LB5t-T16A.1d (designed binder) GPLGSEQVTIKENIYFEDGTVQAATFKGTFAEATAEAYRYADLLSKEHGKYTADLEDGGYTINIRFAG |
|  |  |  |  |  | 3.66 pH | LB5t-T16H.4d (designed binder) KEETPETPETDSEEQVTIKENIYFEDGTVQHATFKGTFAEATAEAYRYADLLSKEHGKYTADLEDGGYTINIRFAGKEKTPEEPKEQVTIKENIYFEDGTVQHATFKGTFAEATAEAYRYADLLSKEHGKYTADLEDGGYTINIRFAGKEKTPEEPKEQVTIKENIYFEDGTVQHATFKGTFAEATAEAYRYADLLSKEHGKYTADLEDGGYTINIRFAGKEKTPEEPKEQVTIKENIYFEDGTVQHATFKGTFAEATAEAYRYADLLSKEHGKYTADLEDGGYTINIRFAGKKVDEKPEEC |
|  |  |  |  | 2.7 pH |  | LB1t-Wild.1d (protein) VTIKANLIFANGSTQTAEFKGTFEKATSEAYAYADTLKKDNGEYTVDVADKGYTLNIKFA |
|  |  |  |  | 2.95 pH |  | LB1t-E18D.1d (designed binder) VTIKANLIFANGSTQTADFKGTFEKATSEAYAYADTLKKDNGEYTVDVADKGYTLNIKFA |

The next lines start with the binder.

| Binder | Ka [1] | koff [1] | kon [1] | Dissociation pH [2] | Dissociation pH [3] | Elution pH [4] |
| --- | --- | --- | --- | --- | --- | --- |
| LB5t-T16D.1d (designed binder) GPLGSEQVTIKENIYFEDGTVQDATFKGTFAEATAEAYRYADLLSKEHGKYTADLEDGGYTINIRFAG | 1.44e+07 M⁻¹ | 0.0265 s⁻¹ | 381000 M⁻¹ s⁻¹ | 3.6 pH |  |  |
| LB5t-T18D.1d (designed binder) GPLGSEQVTIKENIYFEDGTVQTADFKGTFAEATAEAYRYADLLSKEHGKYTADLEDGGYTINIRFAG | 6.79e+06 M⁻¹ | 0.0467 s⁻¹ | 317000 M⁻¹ s⁻¹ | 3.85 pH |  |  |
| LB5t-T18H.1d (designed binder) GPLGSEQVTIKENIYFEDGTVQTAHFKGTFAEATAEAYRYADLLSKEHGKYTADLEDGGYTINIRFAG | 1.17e+07 M⁻¹ | 0.036 s⁻¹ | 422000 M⁻¹ s⁻¹ | 3.9 pH |  |  |
| LB5t-Q15H.1d (designed binder) GPLGSEQVTIKENIYFEDGTVHTATFKGTFAEATAEAYRYADLLSKEHGKYTADLEDGGYTINIRFAG | 6.7e+06 M⁻¹ | 0.0485 s⁻¹ | 325000 M⁻¹ s⁻¹ | 3.9 pH |  |  |
| LB5t-T16H.1d (designed binder) GPLGSEQVTIKENIYFEDGTVQHATFKGTFAEATAEAYRYADLLSKEHGKYTADLEDGGYTINIRFAG | 2.69e+07 M⁻¹ | 0.0159 s⁻¹ | 428000 M⁻¹ s⁻¹ | 3.9 pH |  |  |
| LB5t-A17H.1d (designed binder) GPLGSEQVTIKENIYFEDGTVQTHTFKGTFAEATAEAYRYADLLSKEHGKYTADLEDGGYTINIRFAG | 1.08e+06 M⁻¹ | 0.0738 s⁻¹ | 80000 M⁻¹ s⁻¹ | 3.9 pH |  |  |
